The values below come from PMC8977021, “bZIP transcription factors PcYap1 and PcRsmA link oxidative stress response to secondary metabolism and development in Penicillium chrysogenum”.

Data set [1] concerns the target T1, PcRsmA (Penicillium chrysogenum Wis54-1255 (P. rubens Wis54-1255)) (UniProt B6GZ21).
T1 sequence: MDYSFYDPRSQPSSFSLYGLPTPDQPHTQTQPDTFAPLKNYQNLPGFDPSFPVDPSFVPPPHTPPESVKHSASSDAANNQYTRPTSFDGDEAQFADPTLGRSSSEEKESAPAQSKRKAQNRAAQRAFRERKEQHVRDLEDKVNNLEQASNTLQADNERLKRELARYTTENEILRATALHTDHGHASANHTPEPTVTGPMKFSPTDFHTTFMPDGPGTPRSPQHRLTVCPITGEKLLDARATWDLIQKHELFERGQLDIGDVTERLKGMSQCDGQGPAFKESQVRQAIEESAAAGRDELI
The experiment in a line: EMSA. The settings on record: LightShift binding buffer 1X, about 10% glycerol, 5 mM MgCl2, 20 fmol biotin probe, 10 ug protein, 20 uL, room temperature 20 min; 5% native PAGE in 0.5X TBE …. (In general: Mobility shift assays separate free from complexed probe on a gel.)

The target of data set [2] is T2, PcYap1 (Penicillium chrysogenum Wis54-1255 (P. rubens Wis54-1255)) (UniProt B6HDY4).
T2 sequence: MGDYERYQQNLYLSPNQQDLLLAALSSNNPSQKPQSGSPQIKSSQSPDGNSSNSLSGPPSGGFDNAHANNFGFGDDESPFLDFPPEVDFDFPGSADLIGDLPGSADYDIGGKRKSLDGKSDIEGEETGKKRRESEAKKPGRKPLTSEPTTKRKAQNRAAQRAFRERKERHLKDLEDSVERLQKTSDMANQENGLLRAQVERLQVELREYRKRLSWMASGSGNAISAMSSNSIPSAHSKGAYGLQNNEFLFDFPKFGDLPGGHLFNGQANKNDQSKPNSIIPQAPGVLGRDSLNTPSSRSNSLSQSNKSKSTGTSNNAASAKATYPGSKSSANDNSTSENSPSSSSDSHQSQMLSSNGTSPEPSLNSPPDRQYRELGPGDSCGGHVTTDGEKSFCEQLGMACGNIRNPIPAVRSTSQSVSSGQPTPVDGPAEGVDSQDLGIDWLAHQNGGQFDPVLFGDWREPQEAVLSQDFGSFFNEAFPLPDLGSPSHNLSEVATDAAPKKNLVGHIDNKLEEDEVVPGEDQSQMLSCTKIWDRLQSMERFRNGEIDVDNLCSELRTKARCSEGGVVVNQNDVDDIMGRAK
The data set is described as follows: EMSA. The settings on record: LightShift binding buffer 1X, about 10% glycerol, 5 mM MgCl2, 20 fmol biotin probe, 10 ug protein, 20 uL, room temperature 20 min; 5% native PAGE in 0.5X TBE ….

A further data set has as its target T3, PcRsmA (Penicillium chrysogenum Wis54-1255 (P. …, UniProt B6GZ21 1-299)).
T3 sequence: T1 sequence
The experiment in a line: EMSA; LightShift binding buffer 1X, about 10% glycerol, 5 mM MgCl2, 20 fmol biotin probe, 10 ug protein, 20 uL, room temperature 20 min; 5% native PAGE in 0.5X TBE; pH and salt not given. To be noted: protein: recombinant; tags: C-terminal c-myc-6xHis; chain copies: 2; label: 3' biotin; blunt.

In the next data set the target is T4, PcYap1 (Penicillium chrysogenum Wis54-1255 (P. …, UniProt B6HDY4 1-582)).
T4 sequence: T2 sequence
The data set is described as above. The settings on record: protein: recombinant; tags: C-terminal c-myc-6xHis; chain copies: 2; label: 3' biotin; blunt.

Residue numbers refer to the chain shown, from its start.

As for “TGTTTATGCTGAGACAACCTGGAGACATTATACGCTTGCAGCCCAGATGCTTACTGGATGGGGCCGCTGGAGCCAGTGTAAAATTAGTAACCGTATCTCGAAGTCGGAGGGTCTTTGGTGGTCTGAGATTTCAGTCGGTCCGCACCGTGGCATTTGCAGACGGTGCGATCAGGCCAATCGTTGATGCTCGG (double strand) [probe 5]”, the binding result in data set [1] and in data set [2] was “binds” in each case.

Turning to “AACATCGCCGTCGTTGAGTGCACGTTGCCTACTCTCTCGTGGCTTGGCTGGGCCCACGAGCCCGATTGACTCGACGGTGTTACTTGGGTATCTATGGCCCCGTTTTCTGGCACGGTAATGATAAGTACTTACTAGTCTTCGAGCGGGGGAGTGTTGCTCTGCCCGAGCATCAACGATTGGCCTGA (double strand) [probe 4]”, the binding entry in data set [1] and in data set [2] was “no binding” each time.

Turning to “CCGAGCATCAACGATTGGCCTGATCGCACCGTCTGCAAATGCCACGGTGCGGACCGACTGAAATCTCAGACCACCAAAGACCCTCCGACTTCGAGATACGG (double strand) [dwPta1]”, in data set [1], the binding result is reported as “no binding”.

B1: RsmA-2 (dsDNA)
DNA 1: CAGTAAGCATCTGGGCTGCAAGCGTATAATGTCTCCAGGTTGTCTCAGCATAAACA
DNA 2: TGTTTATGCTGAGACAACCTGGAGACATTATACGCTTGCAGCCCAGATGCTTACTG
In the case of B1, the binding result with PcRsmA is recorded as “binds”.

B2: RsmA-2C (dsDNA)
DNA 1: CTCCAGGTTGTCTCAGCATAAACA
DNA 2: TGTTTATGCTGAGACAACCTGGAG
On to B2, for which the binding result in the data set with PcRsmA was “binds”.

B3: RsmA-2B (dsDNA)
DNA 1: CAGTAAGCATCTGGGCTGCAAGCGTATAATGTCTCCAG
DNA 2: CTGGAGACATTATACGCTTGCAGCCCAGATGCTTACTG
For B3, in the data set with PcRsmA, the binding result is recorded as “no binding”.

B4: AP1-brlA (dsDNA)
DNA 1: AAAACAATACAATTTACTAAAGTCCACTGGGCA
DNA 2: TGCCCAGTGGACTTTAGTAAATTGTATTGTTTT
In the case of B4, the binding result in the data set with PcRsmA is “no binding”; with PcYap1, “binds”.

B5: AP1-brlA-Mut (dsDNA)
DNA 1: B4 DNA 1 with T15G, A20G
DNA 2: B4 DNA 2 with T14C, A19C
For the molecule B5, the binding result with PcRsmA and with PcYap1 was “no binding” in each case.

B6: PTA1-WT (dsDNA)
DNA 1: GCCAGTGTAAAATTAGTAACCGTATCTC
DNA 2: GAGATACGGTTACTAATTTTACACTGGC
Take B6: the binding result was “no binding” in the data set with PcRsmA and “binds” in the data set with PcYap1.

B7: AflR-RsmA (dsDNA)
DNA 1: CGACTGACACAAGAAATAACAATTC
DNA 2: GAATTGTTATTTCTTGTGTCAGTCG
For B7, the binding result with PcRsmA was “binds”.

B8: penDE-CRE123 (dsDNA)
DNA 1: AGGTCCTGCATTAGCGTACGCCCCAGGTTTAGATCAAAGTTACGTAATTTATATGTA
DNA 2: TACATATAAATTACGTAACTTTGATCTAAACCTGGGGCGTACGCTAATGCAGGACCT
Take B8: the values for the binding result with PcRsmA and with PcYap1 were “binds” and “no binding”, respectively.

B9: penDE-CRE123-M1 (dsDNA)
DNA 1: B8 DNA 1 with T40C, T45A
DNA 2: B8 DNA 2 with A13T, A18G
With B9, the binding result with PcRsmA is recorded as “no binding”.

B10: PTA1-M1 (dsDNA)
DNA 1: GCCAGTGTAAAACTAGTCACCGTATCTC
DNA 2: GAGATACGGTGACTAGTTTTACACTGGC
As for B10, the binding result in the data set with PcRsmA and with PcYap1 was “no binding” in each case.

B11: RsmA-2A (dsDNA)
DNA 1: CAGTAAGCATCTGGGCTGCAAGCGTATA
DNA 2: TATACGCTTGCAGCCCAGATGCTTACTG
Turning to B11, the binding result with PcRsmA is on record as “no binding”.
